Consider 3 molecules from patent US20160251440A1.

Test [1] has as its target human CXCR4 (on cells, viral lipoparticles or membrane extracts) (human) (UniProt P61073). As to the kind of experiment: cell-based or functional assay.
Test [2] has the same target. As to the kind of experiment: ELISA on coated CXCR4 viral lipoparticles (upper right panel). (In an ELISA, binding on a coated surface is turned into a signal by an enzyme label.)
Test [3] deals with recombinant IL-3Rα ectodomain (human) (UniProt P26951). As to the kind of experiment: ELISA on recombinant IL-3Ra ectodomain (panel 'IL-3Ra ELISA', lower left).
Chain of recombinant IL-3Rα ectodomain (human) (P26951 19-305): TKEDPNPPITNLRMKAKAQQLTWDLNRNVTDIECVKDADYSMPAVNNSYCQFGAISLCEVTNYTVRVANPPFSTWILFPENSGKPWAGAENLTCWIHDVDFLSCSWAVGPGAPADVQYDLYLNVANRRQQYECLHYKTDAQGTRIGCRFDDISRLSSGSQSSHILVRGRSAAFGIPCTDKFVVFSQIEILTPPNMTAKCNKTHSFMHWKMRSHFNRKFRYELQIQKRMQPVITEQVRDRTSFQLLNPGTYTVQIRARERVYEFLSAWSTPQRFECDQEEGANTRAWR
Test [4] concerns the target human CXCR4 (on cells, viral lipoparticles or membrane extracts) (human) (UniProt P61073). As to the kind of experiment: FACS, Caki-CXCR4 cells.
For test [5] the target is unchanged. As to the kind of experiment: [125I]-SDF-1 displacement, Hek-CXCR4 membrane extracts.
For test [6] the target is unchanged. As to the kind of experiment: FACS displacement of 30 nM biotin-SDF-1, Caki-CXCR4 cells.
For test [7], the target named is human IL-23R, cell-expressed (human) (UniProt Q5VWK5). The test can be described thus: cell-based or functional assay.
Chain of human IL-23R, cell-expressed (human) (Q5VWK5 24-629): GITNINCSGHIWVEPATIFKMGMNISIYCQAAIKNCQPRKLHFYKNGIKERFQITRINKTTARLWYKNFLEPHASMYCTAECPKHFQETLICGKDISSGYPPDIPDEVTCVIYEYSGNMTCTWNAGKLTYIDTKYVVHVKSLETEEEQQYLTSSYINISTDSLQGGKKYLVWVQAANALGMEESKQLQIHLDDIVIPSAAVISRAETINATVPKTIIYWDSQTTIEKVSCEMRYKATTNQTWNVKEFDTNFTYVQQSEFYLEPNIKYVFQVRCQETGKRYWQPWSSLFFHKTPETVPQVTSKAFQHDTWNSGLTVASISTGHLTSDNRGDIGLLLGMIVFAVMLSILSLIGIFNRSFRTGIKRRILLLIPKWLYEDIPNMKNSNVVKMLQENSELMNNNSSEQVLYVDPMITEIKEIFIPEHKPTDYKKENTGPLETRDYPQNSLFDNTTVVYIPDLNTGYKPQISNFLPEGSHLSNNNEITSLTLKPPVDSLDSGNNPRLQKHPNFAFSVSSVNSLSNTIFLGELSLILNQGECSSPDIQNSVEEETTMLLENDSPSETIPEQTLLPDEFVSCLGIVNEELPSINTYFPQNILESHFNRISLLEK

Chain of human CXCR4 (on cells, viral lipoparticles or membrane extracts) (human) (P61073 whole entry): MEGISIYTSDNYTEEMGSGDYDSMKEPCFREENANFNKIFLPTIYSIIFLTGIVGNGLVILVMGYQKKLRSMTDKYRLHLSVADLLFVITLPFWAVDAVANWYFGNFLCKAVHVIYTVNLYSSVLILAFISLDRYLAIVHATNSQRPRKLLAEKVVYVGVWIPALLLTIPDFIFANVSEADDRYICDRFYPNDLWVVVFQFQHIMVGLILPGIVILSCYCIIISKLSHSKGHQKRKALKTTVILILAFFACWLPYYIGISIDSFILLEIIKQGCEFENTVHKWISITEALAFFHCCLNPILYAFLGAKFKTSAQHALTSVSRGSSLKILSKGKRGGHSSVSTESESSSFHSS

B1: 14D09-35GS-55A01 (bispecific antibody)
chain: EVQLVESGGGLVQAGGSLRLSCVASGISSSKRNMGWYRQAPGKQRESVATISSGGNKDYTDAVKDRFTISRDTTKNTVYLQMNSLKPEDTAVYYCKIEAGTGWATRRGYTYWGQGTLVTVSSGGGGSGGGGSGGGGSGGGGSGGGGSGGGGSGGGGSEVQLVESGGGSVQAGGSLRLSCTTSGRALNMYVMGWFRQAPGNEREFVAATSSSGGSTSYPDSVKGRFTISRDNAKNTVYLQMNSLKPEDTAAYRCAASPYVSTPTMNILEEYRYWGQGTLVTVSS
One may read the EC50 (read off the curve) as the concentration that produces a half-maximal response. As for B1, in test [1], the Fold inc. vs CXCR4#1, Jurkat E6-1 stood at 0.87 fold; the Fold inc. vs CXCR4#1, MOLM-13 amounted to 2.39 fold; the IC50, CXCL-12 chemotaxis, Jurkat E6-1 is 12 nM; the IC50, CXCL-12 chemotaxis, MOLM-13 was 3.6 nM. This molecule also displayed a concentration for a half-maximal effect (EC50 (read off the curve)) in test [2] of 7 nM. For the same molecule, the 50% effective concentration (EC50 (read off the curve)) in test [3] is 1 nM.

B2: 238D4 (VHH, from a related filing)
VHH: EVQLMESGGGLVQAGGSLRLSCAASGRTFNNYAMGWFRRAPGKEREFVAAITRSGVRSGVSAIYGDSVKDRFTISRDNAKNTLYLQMNSLKPEDTAVYTCAASAIGSGALRRFEYDYSGQGTQVTVSS
As a reminder, the EC50 is the concentration needed to bring the measured effect to its halfway point. Usually Ki stands for the equilibrium dissociation constant of an inhibitor or competing ligand from its target. Read a high Ki as a looser hold on the target. The term IC50 denotes the midpoint of a concentration-inhibition curve. In test [4], B2 had a concentration giving a half-maximal response (EC50) of 3.4 nM. The same molecule yielded an IC50, SDF-1 chemotaxis, Jurkat in test [1] of 7.6 nM. Besides, in test [5], the inhibition constant (Ki) came to 5.4 nM. Moreover, the IC50 in test [6] was 2.1 nM.

B3: IL23R#19-35GS-CD4#8 (bispecific antibody)
chain: EVQLVESGGGLVQPGGSLTLSCVASGRTFSTDVMGWFRQAPGKEREFVAAHRTSGISTVYAASVKGRFTISRDNAKNTVYLGMKSLKPEDTAVYVCAAGSDASGGYDYWGQGTLVTVSSGGGGSGGGGSGGGGSGGGGSGGGGSGGGGSGGGGSEVQLVESGGGSVQPGGSLTLSCGTSGRTFNVMGWFRQAPGKEREFVAAVRWSSTGIYYTQYADSVKSRFTISRDNAKNTVYLEMNSLKPEDTAVYYCAADTYNSNPARWDGYDFRGQGTLVTVSS
On to B3, for which, in test [7], the IC50, IL-17 release, PBMC D840 came out at 58.9 nM and the fold ctrl, IL-17 release was found to be 1.7 fold.
